# Where a chain is given by its changes, count along the chain named. Numbers in names are those of the source.
# B1: M36 (HC-K12E / LC-K45E) (antibody, human IgG1, kappa)
# heavy: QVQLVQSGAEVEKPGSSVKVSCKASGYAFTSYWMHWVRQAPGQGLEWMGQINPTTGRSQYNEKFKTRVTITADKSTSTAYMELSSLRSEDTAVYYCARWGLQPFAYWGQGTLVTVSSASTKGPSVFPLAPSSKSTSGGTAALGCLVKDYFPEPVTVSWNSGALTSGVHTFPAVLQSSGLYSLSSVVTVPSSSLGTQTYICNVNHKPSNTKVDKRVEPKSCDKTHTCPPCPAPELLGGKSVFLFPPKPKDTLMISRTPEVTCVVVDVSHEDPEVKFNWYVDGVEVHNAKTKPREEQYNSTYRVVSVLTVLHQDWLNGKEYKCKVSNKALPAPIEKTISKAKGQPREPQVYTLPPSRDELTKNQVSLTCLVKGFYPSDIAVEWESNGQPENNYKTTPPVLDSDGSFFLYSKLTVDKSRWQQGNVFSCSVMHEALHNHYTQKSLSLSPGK
# light: DIQMTQSPSFLSASVGDRVTITCKASQDVSTAVAWYQQKPGKAPELLIYSASYRYTGVPSRFSGSGSGTDFTLTISSLQPEDFATYYCQQHYSTPWTFGGGTKVEIKRTVAAPSVFIFPPSDEQLKSGTASVVCLLNNFYPREAKVQWKVDNALQSGNSQESVTEQDSKDSTYSLSSTLTLSKADYEKHKVYACEVTHQGLSSPVTKSFNRGEC
# notes: IgG1-P238K; also called HC4/LC3
# B2: M63 (HC-R67Q / LC-K45Q,R54Q,R61Q) (antibody, human IgG1, kappa, V domains shown)
# VH: QVQLVQSGAEVKKPGSSVKVSCKASGYAFTSYWMHWVRQAPGQGLEWMGQINPTTGRSQYNEKFKTQVTITADKSTSTAYMELSSLRSEDTAVYYCARWGLQPFAYWGQGTLVTVSS
# VL: DIQMTQSPSFLSASVGDRVTITCKASQDVSTAVAWYQQKPGKAPQLLIYSASYQYTGVPSQFSGSGSGTDFTLTISSLQPEDFATYYCQQHYSTPWTFGGGTKVEIKR
# notes: IgG1-P238K; also called HC15/LC4
# B3: M49 (HC-wt / LC-K45Q,R54Q,R61Q) (antibody, human IgG1, kappa)
# heavy: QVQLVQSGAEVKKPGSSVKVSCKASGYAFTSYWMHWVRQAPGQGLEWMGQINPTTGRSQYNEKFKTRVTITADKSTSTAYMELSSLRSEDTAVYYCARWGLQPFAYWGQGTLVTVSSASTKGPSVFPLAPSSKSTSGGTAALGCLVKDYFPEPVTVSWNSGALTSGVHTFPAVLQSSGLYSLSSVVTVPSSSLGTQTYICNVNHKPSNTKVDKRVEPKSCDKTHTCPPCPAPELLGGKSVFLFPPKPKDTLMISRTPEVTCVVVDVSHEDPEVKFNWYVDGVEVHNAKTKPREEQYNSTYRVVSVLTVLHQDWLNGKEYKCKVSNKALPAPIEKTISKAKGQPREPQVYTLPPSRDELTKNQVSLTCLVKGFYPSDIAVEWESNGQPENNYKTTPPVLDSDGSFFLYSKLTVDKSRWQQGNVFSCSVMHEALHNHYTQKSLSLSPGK
# light: B1 light with E45Q, R54Q, R61Q
# notes: IgG1-P238K; also called HC1/LC4
# B4: M81 (HC-wt / LC-K107Q,R108Q) (antibody, human IgG1, kappa)
# heavy: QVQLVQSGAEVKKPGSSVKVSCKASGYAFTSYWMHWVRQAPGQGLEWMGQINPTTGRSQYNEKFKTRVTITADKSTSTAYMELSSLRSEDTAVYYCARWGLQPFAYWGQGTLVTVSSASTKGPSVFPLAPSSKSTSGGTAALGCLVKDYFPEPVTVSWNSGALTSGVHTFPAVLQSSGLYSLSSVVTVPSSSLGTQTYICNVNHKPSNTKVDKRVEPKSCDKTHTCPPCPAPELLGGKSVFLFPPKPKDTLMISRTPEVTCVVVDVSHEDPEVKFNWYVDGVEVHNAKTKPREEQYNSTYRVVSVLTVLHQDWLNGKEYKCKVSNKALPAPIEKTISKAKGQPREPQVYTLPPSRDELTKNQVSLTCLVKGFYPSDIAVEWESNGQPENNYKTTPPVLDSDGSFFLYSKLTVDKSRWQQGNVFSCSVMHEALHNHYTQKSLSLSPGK
# light: B1 light with E45K, K107Q, R108Q
# notes: IgG1-P238K; also called HC1/LC6
# B5: M62 (HC-K74T / LC-K45Q,R54Q,R61Q) (antibody, human IgG1, kappa, V domains shown)
# VH: B2 VH with Q67R, K74T
# VL: B2 VL
# notes: IgG1-P238K; also called HC14/LC4
# B6: M37 (HC-K12E,K13Q,K23E / LC-K45E) (antibody, human IgG1, kappa)
# heavy: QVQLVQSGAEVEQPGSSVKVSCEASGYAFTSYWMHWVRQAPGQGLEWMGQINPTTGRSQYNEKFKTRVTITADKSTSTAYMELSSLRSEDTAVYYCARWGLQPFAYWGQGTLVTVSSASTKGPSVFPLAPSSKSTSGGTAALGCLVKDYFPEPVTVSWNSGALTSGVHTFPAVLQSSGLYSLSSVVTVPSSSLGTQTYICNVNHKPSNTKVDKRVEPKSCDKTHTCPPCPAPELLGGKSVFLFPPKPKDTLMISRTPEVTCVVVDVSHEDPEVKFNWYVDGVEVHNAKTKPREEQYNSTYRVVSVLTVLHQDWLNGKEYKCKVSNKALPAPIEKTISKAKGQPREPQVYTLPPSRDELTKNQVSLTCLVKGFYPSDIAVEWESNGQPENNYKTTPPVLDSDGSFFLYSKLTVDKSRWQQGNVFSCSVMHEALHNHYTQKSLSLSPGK
# light: B1 light
# notes: IgG1-P238K; also called HC5/LC3
# B7: M80 (HC-K63Q / LC-R61Q) (antibody, human IgG1, kappa, V domains shown)
# VH: B2 VH with K63Q, Q67R
# VL: B2 VL with Q45K, Q54R
# notes: IgG1-P238K; also called HC16/LC5
# B8: M53 (HC-K12E,K13Q,K23E / LC-K45Q,R54Q,R61Q) (antibody, human IgG1, kappa)
# heavy: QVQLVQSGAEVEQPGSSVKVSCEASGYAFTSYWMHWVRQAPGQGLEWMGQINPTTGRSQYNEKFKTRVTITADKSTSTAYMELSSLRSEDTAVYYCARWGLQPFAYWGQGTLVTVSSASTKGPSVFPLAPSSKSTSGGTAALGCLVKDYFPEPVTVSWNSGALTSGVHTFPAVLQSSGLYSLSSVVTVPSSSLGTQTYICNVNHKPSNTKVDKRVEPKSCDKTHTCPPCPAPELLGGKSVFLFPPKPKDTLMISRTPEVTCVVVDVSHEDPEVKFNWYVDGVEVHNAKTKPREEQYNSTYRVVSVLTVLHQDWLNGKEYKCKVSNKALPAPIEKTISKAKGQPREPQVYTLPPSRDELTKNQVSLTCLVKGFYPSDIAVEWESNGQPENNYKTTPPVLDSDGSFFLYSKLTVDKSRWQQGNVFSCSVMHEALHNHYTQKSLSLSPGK
# light: B1 light with E45Q, R54Q, R61Q
# notes: IgG1-P238K; also called HC5/LC4
# B9: M47 (HC-R67Q / LC-K45E) (antibody, human IgG1, kappa, V domains shown)
# VH: B2 VH
# VL: B2 VL with Q45E, Q54R, Q61R
# notes: IgG1-P238K; also called HC15/LC3
# B10: M38 (HC-K12V,K19S,K23A / LC-K45E) (antibody, human IgG1, kappa, V domains shown)
# VH: B2 VH with K12V, K19S, K23A, Q67R
# VL: B2 VL with Q45E, Q54R, Q61R
# notes: IgG1-P238K; also called HC6/LC3
# B11: M54 (HC-K12V,K19S,K23A / LC-K45Q,R54Q,R61Q) (antibody, human IgG1, kappa, V domains shown)
# VH: B2 VH with K12V, K19S, K23A, Q67R
# VL: B2 VL
# notes: IgG1-P238K; also called HC6/LC4
# Molecular target: human CD40 on primary human tonsillar B cells (human, UniProt P25942 21-277)
# Assay: cell-based or functional assay
# Sequence of human CD40 on primary human tonsillar B cells (P25942 21-277 limits assumed): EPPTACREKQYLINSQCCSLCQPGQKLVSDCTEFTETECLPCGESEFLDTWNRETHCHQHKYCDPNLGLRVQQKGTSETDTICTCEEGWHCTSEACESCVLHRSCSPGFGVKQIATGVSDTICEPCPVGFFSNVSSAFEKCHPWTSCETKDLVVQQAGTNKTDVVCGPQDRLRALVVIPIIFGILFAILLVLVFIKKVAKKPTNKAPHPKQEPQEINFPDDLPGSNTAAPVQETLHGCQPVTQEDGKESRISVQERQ
Binder,"IC50, inhibition of tonsillar human B cell proliferation stimulated by IZ-hCD40L trimer [µg/mL]","IC50, inhibition of tonsillar human B cell proliferation stimulated by hCD40L expressing CHO cells [µg/mL]"
B1,0.0026,0.0477
B2,0.0057,0.208
B3,0.0007,0.0672
B4,0.0007,0.0257
B5,0.0062,0.356
B6,0.0009,0.129
B7,0.0164,0.369
B8,0.0034,0.367
B9,0.0004,0.0547
B10,0.0072,0.181
B11,0.0033,0.201

# Molecular target: T1, soluble human CD40 extracellular domain (human, UniProt P25942 21-193)
# T1 construct: Produced in house; also called hCD40; soluble hCD40 extracellular domain
# Assay: SPR, purified Ab on protein A, 6 concentrations of hCD40 ECD
# Protocol: Additionally, to more accurately define the dissociation rate (kd), a longer dissociation time of 360 seconds (s) was used as opposed to the shorter 180 s dissociation that had been used in the supernatant screening experiment.
# CD40 binding SPR: SPR studies of the purified antibodies were conducted on BIAcore™ T200 instrument (GE Healthcare, Chicago Ill.). A Series S Protein A sensor chip (GE Healthcare, Chicago Ill.) was equilibrated with SPR running buffer of 10 mM NaPO₄, 130 mM NaCl, 0.05% tween 20, (PBS-T) pH 7.2 at 25° C. The purified antibody samples were diluted to 3 μg/ml in PBS-T and captured on the protein A surface for 30 s at 10 μl/min Binding of 3.91, 7.81, 15.6, 31.3, 62.5, and 125 nM human CD40 extracellular domain (produced in house) was evaluated using association time of 180 s at 30 μl/min, followed by a dissociation time of 360 s at 30 μl/min Regeneration between cycles was accomplished using two 15 s injections of 10 mM glycine pH 1.5. […] Data were analyzed using BIAcore™ T200 evaluation software by fitting to a 1:1 Langmuir model.
# T1 sequence (P25942 21-193 limits assumed): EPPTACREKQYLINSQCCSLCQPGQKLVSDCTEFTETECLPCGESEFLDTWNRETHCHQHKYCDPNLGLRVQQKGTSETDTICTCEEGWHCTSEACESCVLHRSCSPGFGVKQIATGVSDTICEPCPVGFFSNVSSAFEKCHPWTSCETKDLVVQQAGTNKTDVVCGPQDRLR
Binder,Kd [nM],koff [s⁻¹],kon [M⁻¹ s⁻¹]
B1,2.6,0.00078,300000
B2,1.8,0.00073,400000
B3,2.2,0.0007,320000
B4,3,0.0007,240000
B5,2.2,0.00066,300000
B6,3.3,0.00084,250000
B7,2.9,0.0007,240000
B8,2.5,0.0008,320000
B9,2.2,0.00074,330000
B10,2.8,0.00077,280000
B11,2.3,0.00075,330000

# Molecular target: T1, soluble human CD40 extracellular domain
# Assay: SPR, Ab captured from supernatant on protein A, hCD40 ECD analyte
# Outline: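 Biacore T200, 25 °C, PBS-T pH 7.2; antibodies (3 μg/ml, supernatants titre-normalised) captured on protein A chip 30 s. Human CD40 ECD analyte (5 and 50 nM, or 50 and 500 nM), 180 s association and 180 s dissociation at 30 μl/min; 1:1 Langmuir fit.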
row,Binder,Kd [nM]
1,B1,3.4
2,B2,2.4
3,B3,3
4,B4,4.1
5,B5,3.1
6,B6,4.1
7,B7,4.1
8,B8,3.2
9,B9,3.2
10,B10,3.9
11,B11,3

# Molecular target: T1, soluble human CD40 extracellular domain
# Assay: SPR, antibody captured from supernatant on protein A chip, soluble hCD40 ECD at 5 and 50 nM (summary table of the 16 chosen antibodies)
row,Binder,Kd [nM]
1,B1,3.4
2,B2,2.4
3,B3,3
4,B4,4.1
5,B5,3.1
6,B6,4.1
7,B7,4.1
8,B8,3.2
9,B9,3.2
10,B10,3.9
11,B11,3

# From US20230203177A1 (Bristol-Myers Squibb, published 2023)
